In patent publication US11137400:
Numbering of substitutions follows the chain as printed.

T1: HA tagged hXBP1s (HA-hXBP1s), wild type, expressed in HEK293T cells
T1 chain: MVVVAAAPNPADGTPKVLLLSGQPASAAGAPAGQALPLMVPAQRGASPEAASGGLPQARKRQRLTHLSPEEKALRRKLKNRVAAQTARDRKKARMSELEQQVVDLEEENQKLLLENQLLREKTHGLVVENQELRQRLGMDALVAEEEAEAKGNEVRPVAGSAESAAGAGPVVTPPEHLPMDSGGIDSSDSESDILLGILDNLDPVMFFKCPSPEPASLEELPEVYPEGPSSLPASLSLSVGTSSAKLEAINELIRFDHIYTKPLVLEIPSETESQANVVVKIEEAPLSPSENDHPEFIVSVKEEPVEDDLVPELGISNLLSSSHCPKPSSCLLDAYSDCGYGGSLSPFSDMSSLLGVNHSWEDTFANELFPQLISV

T2: Affinity-purified GST-tagged hXBP1s S288A mutant
T2 chain: T1 chain with S288A

T3: Affinity-purified GST-tagged wild type (WT) hXBP1s
T3 chain: T1 chain

B1: FLAG-β-TrCP1, expressed in HEK293T cells (protein)
chain: MDPAEAVLQEKALKFMCSMPRSLWLGCSSLADSMPSLRCLYNPGTGALTAFQNSSEREDCNNGEPPRKIIPEKNSLRQTYNSCARLCLNQETVCLASTAMKTENCVAKTKLANGTSSMIVPKQRKLSASYEKEKELCVKYFEQWSESDQVEFVEHLISQMCHYQHGHINSYLKPMLQRDFITALPARGLDHIAENILSYLDAKSLCAAELVCKEWYRVTSDGMLWKKLIERMVRTDSLWRGLAERRGWGQYLFKNKPPDGNAPPNSFYRALYPKIIQDIETIESNWRCGRHSLQRIHCRSETSKGVYCLQYDDQKIVSGLRDNTIKIWDKNTLECKRILTGHTGSVLCLQYDERVIITGSSDSTVRVWDVNTGEMLNTLIHHCEAVLHLRFNNGMMVTCSKDRSIAVWDMASPTDITLRRVLVGHRAAVNVVDFDDKYIVSASGDRTIKVWNTSTCEFVRTLNGHKRGIACLQYRDRLVVSGSSDNTIRLWDIECGACLRVLEGHEELVRCIRFDNKRIVSGAYDGKIKVWDLVAALDPRAPAGTLCLRTLVEHSGRVFRLQFDEFQIVSSSHDDTILIWDFLNDPAAQAEPPRSPSRTYTYISR
B2: Active recombinant human JNK1α1 (Millipore) (protein)
chain: MSRSKRDNNFYSVEIGDSTFTVLKRYQNLKPIGSGAQGIVCAAYDAILERNVAIKKLSRPFQNQTHAKRAYRELVLMKCVNHKNIIGLLNVFTPQKSLEEFQDVYIVMELMDANLCQVIQMELDHERMSYLLYQMLCGIKHLHSAGIIHRDLKPSNIVVKSDCTLKILDFGLARTAGTSFMMTPYVVTRYYRAPEVILGMGYKENVDLWSVGCIMGEMVCHKILFPGRDYIDQWNKVIEQLGTPCPEFMKKLQPTVRTYVENRPKYAGYSFEKLFPDVLFPADSEHNKLKASQARDLLSKMLVIDASKRISVDEALQHPYINVWYDPSEAEAPPPKIPDKQLDEREHTIEEWKELIYKEVMDLEERTKNGVIRGQPSPLAQVQQ
B3: Active recombinant human JNK3 (Millipore) (protein)
chain: MSLHFLYYCSEPTLDVKIAFCQGFDKQVDVSYIAKHYNMSKSKVDNQFYSVEVGDSTFTVLKRYQNLKPIGSGAQGIVCAAYDAVLDRNVAIKKLSRPFQNQTHAKRAYRELVLMKCVNHKNIISLLNVFTPQKTLEEFQDVYLVMELMDANLCQVIQMELDHERMSYLLYQMLCGIKHLHSAGIIHRDLKPSNIVVKSDCTLKILDFGLARTAGTSFMMTPYVVTRYYRAPEVILGMGYKENVDIWSVGCIMGEMVRHKILFPGRDYIDQWNKVIEQLGTPCPEFMKKLQPTVRNYVENRPKYAGLTFPKLFPDSLFPADSEHNKLKASQARDLLSKMLVIDPAKRISVDDALQHPYINVWYDPAEVEAPPPQIYDKQLDEREHTIEEWKELIYKEVMNSEEKTKNGVVKGQPSPSGAAVNSSESLPPSSSVNDISSMSTDQTLASDTDSSLEASAGPLGCCR

Tests used:
[1] = biological target: T1, HA tagged hXBP1s (HA-hXBP1s), wild …
[2] = biological target: T2, Affinity-purified GST-tagged hXBP1s …
[3] = biological target: T3, Affinity-purified GST-tagged wild type …

Row | Protein | ubiquitination assay (conjugation of MYC-Ub to HA-hXBP1s, anti-HA immunoprecipitation probed with anti-MYC) [1] | in vitro kinase assay, phosphorylation in the presence of ^32P (autoradiography) [2] | in vitro kinase assay, phosphorylation in the presence of ^32P (autoradiography) [3]
1 | B1 | ectopically expressed β-TrCP greatly promoted the conjugation of ubiquitin to HA-hXBP1s | – | –
2 | B2 | – | mutation of Ser288 to A abolished JNKs-mediated phosphorylation of hXBP1s | JNK1, JNK2 or JNK3 was sufficient to directly phosphorylate hXBP1s
3 | B3 | – | mutation of Ser288 to A abolished JNKs-mediated phosphorylation of hXBP1s | JNK1, JNK2 or JNK3 was sufficient to directly phosphorylate hXBP1s
